The text below walks through data of article PMC4120840.

Substrate in the series: Nc1ncnc2c1ncn2[C@@H]1O[C@H](COP(=O)(O)OP(=O)(O)OP(=O)(O)O)[C@@H](O)[C@H]1O
Nature of the series: purified protein. The series is classed as biochemical, Homo sapiens. The settings on record: MgCl2 UBA3 nucleotide binding pocket.

B1: UBA3 (NEDD8 activating enzyme, NAE) (Homo sapiens) (protein)
chain: ADGEEPEKKRRRIEELLAEKMAVDGGCGDTGDWEGRWNHVKKFLERSGPFTHPDFEPSTESLQFLLDTCKVLVIGAGGLGCELLKNLALSGFRQIHVIDMDTIDVSNLNRQFLFRPKDIGRPKAEVAAEFLNDRVPNCNVVPHFNKIQDFNDTFYRQFHIIVCGLDSIIARRWINGMLISLLNYEDGVLDPSSIVPLIDGGTEGFKGNARVILPGMTACIECTLELYPPQVNFPMCTIASMPRLPEHCIEYVRMLQWPKEQPFGEGVPLDGDDPEHIQWIFQKSLERASQYNIRGVTYRLTQGVVKRIIPAVASTNAVIAAVCATEVFKIATSAYIPLNNYLVFNDVDGLYTYTFEAERKENCPACSQLPQNIQFSPSAKLQEVLDYLTNSASLQMKSPAITATLEGKNRTLYLQSVTSIEERTRPNLSKTLKELGLVDGQELAVADVTTPQTVLFKLHFTS
Consider B1, for which the Km – broadly, the substrate concentration at which the rate is half of its maximum – turned out to be 243 µM.

B2: UBA3 A171T (NEDD8 activating enzyme, NAE (UBA3 A171T)) (Homo sapiens; A171T) (protein)
chain: ADGEEPEKKRRRIEELLAEKMAVDGGCGDTGDWEGRWNHVKKFLERSGPFTHPDFEPSTESLQFLLDTCKVLVIGAGGLGCELLKNLALSGFRQIHVIDMDTIDVSNLNRQFLFRPKDIGRPKAEVAAEFLNDRVPNCNVVPHFNKIQDFNDTFYRQFHIIVCGLDSIITRRWINGMLISLLNYEDGVLDPSSIVPLIDGGTEGFKGNARVILPGMTACIECTLELYPPQVNFPMCTIASMPRLPEHCIEYVRMLQWPKEQPFGEGVPLDGDDPEHIQWIFQKSLERASQYNIRGVTYRLTQGVVKRIIPAVASTNAVIAAVCATEVFKIATSAYIPLNNYLVFNDVDGLYTYTFEAERKENCPACSQLPQNIQFSPSAKLQEVLDYLTNSASLQMKSPAITATLEGKNRTLYLQSVTSIEERTRPNLSKTLKELGLVDGQELAVADVTTPQTVLFKLHFTS
As to B2, the Km turned out to be 1006 µM.
